Results taken from FireProtDB (doi:10.1002/pro.5560010709).

Conditions: Bos taurus; pH 4.2; Thermal; CD; Sodium acetate 0.01 M; NaCl 0.1 M; reversible: yes; whole UniProt chain shown

B1: Ribonuclease pancreatic wild type, P61823 (protein)
chain: MALKSLVLLSLLVLVLLLVRVQPSLGKETAAAKFERQHMDSSTSAASSSNYCNQMMKSRNLTKDRCKPVNTFVHESLADVQAVCSQKNVACKNGQTNCYQSYSTMSITDCRETGSSKYPNCAYKTTQANKHIIVACEGNPYVPVHFDASV
For B1, the Tm was 56 °C.
